Assay results reported in US10526416B2, “Anti-HER3 antibodies and uses of same” (Yeda Research and Development Co. Ltd., priority 2014, dated 2020).

B1: XC252: anti-HER3 mAb generated as described in Chen X, et al. (1996); heavy and light chain SEQ ID NOs: 49 and 53 (antibody, V domains shown)
VH: EVQLQQSGAELVRPGVSVKISCKGSGYTFTDYAMHWVKQSHAKSLEWIGVISTYYGDPRDNQKFKGKATMTVDKSSSTAYMELARLTSEDSAIYYCARGDYDWYAIDYWGQGTSVTVSS
VL: DVVMTQTPLSLPVSLGDQASISCRSSQSIVHSDGNTYLEWYLQKPGQSPKLLIYKVSNRFSGVPDRFSGSGSGTDFTLKISRVEAEDLGVYYCFQGSHVPPTFGGGTKLEIK
modifications: VH chain of XC252 polypeptide; VL chain of XC252 polypeptide
B2: NG83: anti-HER3 mAb; light chain CDRs SEQ ID NOs: 7-9, heavy chain CDRs 10-12 (antibody, V domains shown)
VH: QIQLVQSGPELKKRGETVKISCKASGYTFTNYGMNWVRQAPGKGLKCMGWINTYAGEPTYADDFKGRFAFSLDSSASTAYLQINNLKNEDMATYFCARGGITGAMDYWGQGTSVTVSS
VL: DVVMTQKTSSLSTSLGDRVTISCRASQDIRNYLNWYQQKPDGTVKLLIYYTSRLHSGVPSRFSGSGSGTDYSLTISDLEQEDIATYFCQQGNTLPWTFGGGTKLAIK
modifications: VH chain of NG83 polypeptide; VL chain of NG83 polypeptide

What was measured:
[1] = test system: phosphorylation of HER3, AKT and ERK; assay: NRG-induced phosphorylation of HER3, AKT and ERK in N87 cells (immunoblotting); type: cell-based, human; conditions: mAb 10 μg/ml 20 min, then NRG 20 ng/ml
Method: (FIG. 9A) The indicated mAbs were checked for their capacity to compete with fluorescent dye labeled NRG. […] After washes, the labeled-NRG was added and incubated for 30 min at 4° C. Fluorescence intensity at 670 nm was determined following 3 final washes. (FIG. 9B) The ability of the mAbs to avoid NRG-induced phosphorylation of HER3, AKT and ERK, was studied with N87 cells. After 20 min treatment with the indicated mAbs (10 μg/ml) at 37° C., NRG (20 ng/ml) was added to the cells for 10 min. The cells were then lysed, and equal quantities of protein lysates were run on 9% bisacrylamide gel before immunoblotting with the indicated primary antibodies. (FIG. 9C) The capacity of mAb NG33 to avoid NRG-induced migration was checked with OVCAR-5 cells and the quantification reported in a histogram. […] Signals of triplicates were quantified. **** […] (ANOVA and post hoc tests).
(§1) FIGS. 12A-D show a combination of two mAbs directed to two different epitopes of HER3. […] After ah incubation, the plate was washed 4 times with KREBS buffer, and the fluorescence intensity at 610 nm was measured using a fluorescence microplate reader. […] (FIG. 12D) The combination's capacity to modulate NRG-induced phosphorylation of HER3, AKT and ERK was evaluated using N87 cells. […] The cells were then lysed, and equal quantities of lysate protein were electrophoresed before immunoblotting, as indicated. […]

HER3 = HER3 (Homo sapiens, UniProt P21860); assay: HER3 degradation in N87 cells (immunoblotting); type: cell-based; conditions: 3 h, 10 μg/ml mAb
Method: (§2) (FIGS. 5A and 5B) The mAb ability to degrade HER3 after cell treatment was determined as follows. N87 cells were treated for 3 h at 37° C. with 10 μg/ml mAb. After cell lysis and protein extraction, the samples were subjected to immunoblotting with the indicated Ab. (FIG. 5C) The experiment shown in FIG. 5A was performed on 6 other cancer cell lines. (FIG. 5D) The mAb capacity to induce ADCC is reported. BXPC3-luc cells were incubated with the indicated mAbs and secondarily with human PBMC cells for 24 h. Cell killing was detected by measuring the luminescence after final addition of luciferine. *** […], ANOVA and post hoc tests.
NG33 and NRG abilities to degrade HER3 after cell treatment were determined as follows. […]
as §1
The capacity of the mAbs to decrease abundance of HER3 was determined using western blotting. […]

BXPC3-luc cells = assay: Antibody-dependent cellular cytotoxicity (ADCC) luciferase assay with human PBMC; type: cell-based; conditions: 24 h
Method: as §2
ADCC was evaluated with a luciferase-activity assay. Using 96-well white plates, BXPC3-luc (4,000 cells/well) were pre-incubated for 30 min with the indicated antibodies. Ficoll-purified human peripheral blood mononuclear cells (PBMCs) from buffy coat were then added at a 10:1 effector to target cell ratio (E:T). […] Bioluminescence was determined using the Wallac Trilux 1450 Microbeta liquid scintillation and luminescence counter (Perkin-Elmer, MA). Percentage of cellular cytotoxicity was calculated using the following formula: percentage of specific lysis=[bioluminescence in experimental point−basal bioluminescence]/[bioluminescence in total lysis−basal bioluminescence]×100. […]

Sequence of HER3 (P21860 20-1342): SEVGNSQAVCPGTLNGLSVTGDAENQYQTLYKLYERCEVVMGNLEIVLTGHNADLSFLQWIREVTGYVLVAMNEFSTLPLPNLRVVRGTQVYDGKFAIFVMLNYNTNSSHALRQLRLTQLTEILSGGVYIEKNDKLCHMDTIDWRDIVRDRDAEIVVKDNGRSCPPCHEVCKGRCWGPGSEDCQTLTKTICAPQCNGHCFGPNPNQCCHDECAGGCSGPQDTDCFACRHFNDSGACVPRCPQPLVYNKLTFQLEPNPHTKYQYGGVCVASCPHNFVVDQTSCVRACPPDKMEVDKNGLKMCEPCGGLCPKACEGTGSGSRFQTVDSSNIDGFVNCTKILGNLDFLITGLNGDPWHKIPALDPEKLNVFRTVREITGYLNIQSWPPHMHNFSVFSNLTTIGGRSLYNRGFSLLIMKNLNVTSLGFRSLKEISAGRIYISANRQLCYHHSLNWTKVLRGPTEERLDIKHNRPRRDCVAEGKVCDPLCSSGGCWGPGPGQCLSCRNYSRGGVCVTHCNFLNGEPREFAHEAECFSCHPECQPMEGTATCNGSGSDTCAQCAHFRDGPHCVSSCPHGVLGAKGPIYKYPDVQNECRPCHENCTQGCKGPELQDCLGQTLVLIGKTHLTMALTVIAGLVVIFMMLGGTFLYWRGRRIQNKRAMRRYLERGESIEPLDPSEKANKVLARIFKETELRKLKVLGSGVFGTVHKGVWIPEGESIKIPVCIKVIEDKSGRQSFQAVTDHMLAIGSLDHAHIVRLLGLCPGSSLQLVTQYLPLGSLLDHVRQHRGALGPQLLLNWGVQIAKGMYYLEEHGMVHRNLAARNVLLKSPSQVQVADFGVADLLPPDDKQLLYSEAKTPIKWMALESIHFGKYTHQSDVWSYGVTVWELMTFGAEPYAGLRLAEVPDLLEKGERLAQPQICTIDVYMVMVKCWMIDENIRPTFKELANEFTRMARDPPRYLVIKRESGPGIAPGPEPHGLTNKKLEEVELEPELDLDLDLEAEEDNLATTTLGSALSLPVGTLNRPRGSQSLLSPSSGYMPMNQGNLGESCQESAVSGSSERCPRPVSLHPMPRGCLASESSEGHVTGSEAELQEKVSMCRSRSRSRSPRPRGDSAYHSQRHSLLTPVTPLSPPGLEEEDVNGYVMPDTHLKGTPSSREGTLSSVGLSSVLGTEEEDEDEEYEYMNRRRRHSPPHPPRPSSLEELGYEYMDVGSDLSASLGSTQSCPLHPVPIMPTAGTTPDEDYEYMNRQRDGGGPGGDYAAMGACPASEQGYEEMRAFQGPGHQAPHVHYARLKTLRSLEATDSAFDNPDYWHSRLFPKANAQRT

Row | Molecule | effect on NRG-induced HER3 phosphorylation and AKT and ERK activation [1] | HER3 degradation (HER3) | induction of ADCC (BXPC3-luc cells)
1 | B1 | partly decrease the phosphorylation level of HER3 | caused HER3 degradation, but their impact was weaker | –
2 | B2 | – | – | strongly or moderately induced ADCC
